B1: Subtilisin inhibitor, P01006 (parent)
chain: MRNTGAGPSPSVSRPPPSAAPLSGAALAAPGDAPSALYAPSALVLTVGKGVSATTAAPERAVTLTCAPGPSGTHPAAGSACADLAAVGGDLNALTRGEDVMCPMVYDPVLLTVDGVWQGKRVSYERVFSNECEMNAHGSSVFAF

Variants of: B1
Conditions: Streptomyces albogriseolus, Thermal, DSC, reversible: yes, structure 3SSI, whole UniProt chain shown; for ddG of mutation (higher = less stable) / unfolding free energy: 82.21 °C

| Variant | Tm (pH 7, phosphate 25 mM) [°C] | change of melting temperature, mutant - wild type (higher = more stable) (pH 7, phosphate 25 mM) [°C] | unfolding enthalpy (calorimetric) (pH 7, phosphate 25 mM) [kcal/mol] | Tm (pH 9.5, glycine 25 mM) [°C] | change of melting temperature, mutant - wild type (higher = more stable) (pH 9.5, glycine 25 mM) [°C] | unfolding enthalpy (calorimetric) (pH 9.5, glycine 25 mM) [kcal/mol] | ddG of mutation (higher = less stable) (pH 7, phosphate 25 mM) [kcal/mol] | unfolding free energy (pH 7, phosphate 25 mM) [kcal/mol] | ddG of mutation (higher = less stable) (pH 9.5, glycine 25 mM) [kcal/mol] | unfolding free energy (pH 9.5, glycine 25 mM) [kcal/mol] |
| --- | --- | --- | --- | --- | --- | --- | --- | --- | --- | --- |
| MRNTGAGPSPSVSRPPPSAAPLSGAALAAPGDAPSALYAPSALGLTVGKGVSATTAAPERAVTLTCAPGPSGTHPAAGSACADLAAVGGDLNALTRGEDVMCPMVYDPVLLTVDGVWQGKRVSYERVFSNECEMNAHGSSVFAF | 54.5 | -27.7 | 162 | 55.3 | -25.4 | 158 |  |  |  |  |
| MRNTGAGPSPSVSRPPPSAAPLSGAALAAPGDAPSALYAPSALFLTVGKGVSATTAAPERAVTLTCAPGPSGTHPAAGSACADLAAVGGDLNALTRGEDVMCPMVYDPVLLTVDGVWQGKRVSYERVFSNECEMNAHGSSVFAF | 69.1 | -13.5 | 168 | 68.3 | -12.4 | 164 | 5.69 | 0.34 | 5.33 | 0.71 |
| MRNTGAGPSPSVSRPPPSAAPLSGAALAAPGDAPSALYAPSALLLTVGKGVSATTAAPERAVTLTCAPGPSGTHPAAGSACADLAAVGGDLNALTRGEDVMCPMVYDPVLLTVDGVWQGKRVSYERVFSNECEMNAHGSSVFAF | 77.7 | -4.5 | 175 | 75.4 | -5.3 | 170 |  |  | 2.52 | 3.52 |
| MRNTGAGPSPSVSRPPPSAAPLSGAALAAPGDAPSALYAPSALMLTVGKGVSATTAAPERAVTLTCAPGPSGTHPAAGSACADLAAVGGDLNALTRGEDVMCPMVYDPVLLTVDGVWQGKRVSYERVFSNECEMNAHGSSVFAF | 69.6 | -12.6 | 181 | 69 | -11.7 | 176 | 5.92 | 0.11 | 5.43 | 0.61 |
| MRNTGAGPSPSVSRPPPSAAPLSGAALAAPGDAPSALYAPSALILTVGKGVSATTAAPERAVTLTCAPGPSGTHPAAGSACADLAAVGGDLNALTRGEDVMCPMVYDPVLLTVDGVWQGKRVSYERVFSNECEMNAHGSSVFAF | 79.8 | -2.4 | 182 | 78.9 | -1.83 | 178 | 0.84 | 5.19 | 0.94 | 5.1 |
| MRNTGAGPSPSVSRPPPSAAPLSGAALAAPGDAPSALYAPSALALTVGKGVSATTAAPERAVTLTCAPGPSGTHPAAGSACADLAAVGGDLNALTRGEDVMCPMVYDPVLLTVDGVWQGKRVSYERVFSNECEMNAHGSSVFAF |  |  |  | 67 | -13.7 | 190 |  |  |  |  |

From FireProtDB (doi:10.1006/jmbi.1995.0324)
